Tests used:
[1] = target: FCA-mScarlet-I (Arabidopsis thaliana); assay: single-particle tracking with stepwise photobleaching (SlimVar microscopy); fluorescent FCA fusions in nuclei of living Arabidopsis root tissue, 10 ms/frame; molecules per tracked particle from initial intensity over single-molecule brightness; control and sof78 backgrounds for FCA-eGFP
[2] = target: MBP-PrLD (purified recombinant FCA C-terminal half containing prion-like domains) (Arabidopsis); assay: SEC-MALS; Superdex-200 10/300 GL, 40 mM Tris-HCl pH 7.4, 500 mM NaCl; protein at 2 mg/mL; self-association

stoichiometry N [1]	Substance	stoichiometry N [2]
4 molecules	FCA-mScarlet-I (natural protein)	–
–	MBP-PrLD (purified recombinant FCA C-terminal half containing prion-like domains) (domain or fragment)	> 100 molecules

Source: PMC11962161
